Laboratory results: CN115819596A (YOUMAI BIOTECHNOLOGY LIANYUNGANG CO LTD, dated 2023)
One block for each binder: values may come before it.

What was measured:
CD47 on A549 cells = molecular target: T1, CD47 on A549 cells (human, UniProt Q08722 19-323); test: grade of blocking of SIRPα-mouse Fc binding to CD47 on A549 cells, flow cytometry (reference antibody)
T1 construct: whole, on cells; A549 cells also express CEACAM5; also called A549细胞上CD47

[1] = molecular target: T2, 人CEACAM5蛋白 (human CEACAM5 protein) (human, UniProt P06731 35-685, limits assumed); test: SPR (Biacore), antibody captured on protein A chip, CEACAM5 protein as analyte
T2 construct: Soluble protein used for ELISA coating and as SPR analyte; The construct is not described
T2 sequence (looked up): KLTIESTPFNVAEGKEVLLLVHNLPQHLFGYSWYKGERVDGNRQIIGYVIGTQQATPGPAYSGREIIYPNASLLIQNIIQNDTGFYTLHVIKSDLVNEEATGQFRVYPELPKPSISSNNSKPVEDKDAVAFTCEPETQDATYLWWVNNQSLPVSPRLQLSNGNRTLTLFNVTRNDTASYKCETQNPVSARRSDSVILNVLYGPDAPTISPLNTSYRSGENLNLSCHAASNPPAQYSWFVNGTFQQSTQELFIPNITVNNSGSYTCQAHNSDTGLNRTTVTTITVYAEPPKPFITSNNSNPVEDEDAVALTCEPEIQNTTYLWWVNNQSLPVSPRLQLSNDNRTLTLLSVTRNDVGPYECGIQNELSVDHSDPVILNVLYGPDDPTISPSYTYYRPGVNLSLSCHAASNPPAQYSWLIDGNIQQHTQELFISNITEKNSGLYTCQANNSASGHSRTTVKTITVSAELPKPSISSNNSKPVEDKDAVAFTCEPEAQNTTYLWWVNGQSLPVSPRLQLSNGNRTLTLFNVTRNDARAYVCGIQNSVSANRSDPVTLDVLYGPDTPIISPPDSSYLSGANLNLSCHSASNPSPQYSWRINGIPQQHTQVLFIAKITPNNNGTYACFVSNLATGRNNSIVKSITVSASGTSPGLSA

[2] = molecular target: T2, 人CEACAM5蛋白 (human CEACAM5 protein); test: SPR (Biacore), antibody captured on protein A chip; the text value differs tenfold from Table 8
[3] = molecular target: T3, 人CEACAM6 on CHO cells (CHO-CEACAM6) (human, UniProt P40199 35-320); test: flow cytometry on CHO-CEACAM6 stable cells
T3 construct: whole, on cells
T3 sequence (looked up): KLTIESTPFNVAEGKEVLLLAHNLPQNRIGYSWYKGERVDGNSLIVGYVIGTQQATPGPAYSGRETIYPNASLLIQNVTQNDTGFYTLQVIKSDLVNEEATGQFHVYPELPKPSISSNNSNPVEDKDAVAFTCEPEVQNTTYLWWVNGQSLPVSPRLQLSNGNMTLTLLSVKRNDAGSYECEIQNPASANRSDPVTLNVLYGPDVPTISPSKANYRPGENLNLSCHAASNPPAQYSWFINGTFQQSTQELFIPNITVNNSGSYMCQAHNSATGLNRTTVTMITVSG

[4] = molecular target: 食蟹猴CEACAM5蛋白 (cynomolgus CEACAM5 protein) (cynomolgus monkey); test: ELISA, plate-coated cynomolgus CEACAM5 protein
[5] = molecular target: T2, 人CEACAM5蛋白 (human CEACAM5 protein); test: SPR (Biacore 8K), antibody captured on protein A chip, human CEACAM5 protein as analyte
[6] = molecular target: 人CD47蛋白 (human CD47 protein) (human, UniProt Q08722 19-139, limits assumed); test: SPR (Biacore 8K), antibody captured on protein A chip, human CD47 protein as analyte
[7] = molecular target: T2, 人CEACAM5蛋白 (human CEACAM5 protein); test: ELISA, plate-coated human CEACAM5 protein, goat anti-human IgG HRP
[8] = molecular target: T4, 人CEACAM5 on CHO cells (CHO-CEACAM5) (human, UniProt P06731 35-685); test: flow cytometry on CHO cells overexpressing human CEACAM5
T4 construct: whole, on cells; also called 过表达人CEACAM5的CHO细胞
T4 sequence (looked up): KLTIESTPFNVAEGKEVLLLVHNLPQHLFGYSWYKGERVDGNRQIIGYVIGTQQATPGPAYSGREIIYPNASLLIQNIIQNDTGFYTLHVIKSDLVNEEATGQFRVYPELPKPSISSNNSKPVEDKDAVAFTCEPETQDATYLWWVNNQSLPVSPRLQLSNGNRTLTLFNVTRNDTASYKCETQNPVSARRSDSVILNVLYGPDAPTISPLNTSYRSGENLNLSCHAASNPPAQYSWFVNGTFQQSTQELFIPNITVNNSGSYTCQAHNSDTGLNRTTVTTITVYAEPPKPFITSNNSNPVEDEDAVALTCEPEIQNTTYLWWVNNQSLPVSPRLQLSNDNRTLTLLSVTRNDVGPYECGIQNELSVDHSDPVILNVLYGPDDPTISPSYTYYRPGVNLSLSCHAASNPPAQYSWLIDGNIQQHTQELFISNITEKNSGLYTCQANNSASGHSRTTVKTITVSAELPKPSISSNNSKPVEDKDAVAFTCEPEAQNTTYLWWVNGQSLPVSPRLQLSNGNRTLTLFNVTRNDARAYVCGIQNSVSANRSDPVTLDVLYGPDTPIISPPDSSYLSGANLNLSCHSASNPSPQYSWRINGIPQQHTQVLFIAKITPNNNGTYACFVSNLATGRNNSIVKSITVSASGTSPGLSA

binding result (CD47 on A549 cells): binds
B1: UM03-C4 (antibody, V domains shown)
VH: QVQLVESGGGVVQPGGSLRLSCAASGFTFSDYGMAWIRQAPGKGPEWIAFITNLASSIYYADTVTGRFTISRDNSKNTLYLQMNSLRAEDTAVYYCARAGDYRSFPYWGQGTLVTVSA
VL: EIVLTQSPATLSLSPGERATLSCSASSSVNYVNWYQQKPGQAPRILIYGISNLASGVPARFSGSGSGTDFTLTISSLEPEDFAVYYCQQRSTFPPYTFGQGTKLEIK
notes: IgG4 subtype of the humanized anti-human CD47 antibody; also called 人源化CD47单克隆抗体; CD47抗体的IgG4亚型

Kd [1]: 6.8 nM
koff [1]: 0.000445 s⁻¹
kon [1]: 65400 M⁻¹ s⁻¹
Kd [2]: 0.68 nM
binding result [3]: binds
EC50 [4]: 0.678 nM
B2: UM05-L9 (antibody, human IgG1, kappa, V domains shown)
VH: QVQLQQSGPELVRPGVSVKISCKGSGYTFTDYAMHWVKQSHAKSLEWIGVISTYSGHTNYNQKFKGKAIMTVDKSSSTAYMDLARLTSEDSAIYYCVRGSTTAHYYTMDFWGQGTSVTVSS
VL: DIQMTQSPVSLSASVGETVTITCGASENIYGTLNWYQRKQGKSPQLLIYGATNLADGVSSRFSGSGSGRQYSLKISSLHPDDVATYYCQNVLSIPYTFGGGTKLEIKR
notes: also called 人-鼠嵌合抗体UM05-L9; 嵌合抗体UM05-L9

Kd [5]: 7.43 nM
koff [5]: 0.000173 s⁻¹
kon [5]: 23300 M⁻¹ s⁻¹
Kd [6]: 65.7 nM
koff [6]: 0.0451 s⁻¹
kon [6]: 686000 M⁻¹ s⁻¹
B3: UM11-L34 (bispecific antibody)
chain 1: not shown
chain 2: DIQMTQSPSSLSASVGDRVTITCGASENIYGTLNWYQQKPGKSPKLLIYGATNLADAVPSRFSGSGSGTDYTLTISSLQPEDVATYYCQNVLSIPYTFGGGTKVEIKRTVAAPSVFIFPPSDEQLKSGTASVVCLLNNFYPREAKVQWKVDNALQSGNSQESVTEQDSKDSTYSLSSTLTLSKADYEKHKVYACEVTHQGLSSPVTKSFNRGEC

EC50 [7]: 0.399 nM
EC50 [8]: 0.637 µg/mL
B4: UM05-C9 (antibody, V domains shown)
VH: QVQLVQSGAEVKKPGASVKVSCKASGYTFTDYAMHWVRQAPGQGLEWIGVISTYSGHTNYNQKFKGRAIMTRDKSISTAYMELSRLRSDDTAVYYCVRGSTTAHYYTMDFWGQGTTVTVSS
VL: DIQMTQSPSSLSASVGDRVTITCGASENIYGTLNWYQQKPGKSPKLLIYGATNLADAVPSRFSGSGSGTDYTLTISSLQPEDVATYYCQNVLSIPYTFGGGTKVEIK
notes: Humanized anti-human CEACAM5/6 antibody; Only the variable domains are tied to it by name; Detected with goat anti-human IgG; also called 人源化抗体UM05-C9; CEACAM5/6抗体UM05-C9
